Data: patent US20220119534A1 (DRAGONFLY THERAPEUTICS, published 2022)
Where a chain is given by its changes, count along the chain named. Names may count otherwise. Values belong to the binder of their own block, whether it stands above or below them.

What was measured:
mFc-hNKG2D [1] = target: T1, mFc-hNKG2D (human, UniProt P26718 73-216); experiment: SPR Biacore 8K 37 C; mFc-hNKG2D captured on anti-mFc chip, TriNKET as analyte; 1:1 kinetic fit; after 4 wks 40 C in CST pH 7.0, n=3
T1 construct: extracellular domain; Made in house (Dragonfly Tx); the order of tag and ECD follows the name mFc-hNKG2D; also called mFc-tagged human NKG2D; not shown: mouse Fc tag
T1 sequence (looked up): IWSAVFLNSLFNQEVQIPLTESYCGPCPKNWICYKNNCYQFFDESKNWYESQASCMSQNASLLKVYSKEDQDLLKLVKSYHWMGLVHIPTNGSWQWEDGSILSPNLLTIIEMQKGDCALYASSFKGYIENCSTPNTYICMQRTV

mFc-hNKG2D [2] = target: T1, mFc-hNKG2D; experiment: SPR Biacore 8K 37 C; mFc-hNKG2D captured on anti-mFc chip, TriNKET as analyte; 1:1 kinetic fit; control sample, n=2
Protocol: Association was monitored for 60 seconds and dissociation was monitored for 60 seconds. Surfaces were regenerated between cycles with three pulses of 10 mM glycine-HCl, pH 1.7 injected for 20 seconds at 100 μL/min. HBS-EP+ (1×) buffer was used throughout the experiment. Data were analyzed using Biacore 8K Insight evaluation software (GE Healthcare).

Human CLEC12A-His = target: T2, Human CLEC12A-His (human, UniProt Q5QGZ9 65-265); experiment: SPR Biacore 8K 37 C; TriNKET captured on anti-hFc chip, hCLEC12A-His as analyte; 1:1 fit; control sample, n=2
T2 construct: Recombinant soluble protein made in house (Dragonfly Tx); The hCLEC12A spot of the HuProt array is written under this molecule as well; also called hCLEC12A-His; hCLEC12A; not shown: His tag
T2 sequence: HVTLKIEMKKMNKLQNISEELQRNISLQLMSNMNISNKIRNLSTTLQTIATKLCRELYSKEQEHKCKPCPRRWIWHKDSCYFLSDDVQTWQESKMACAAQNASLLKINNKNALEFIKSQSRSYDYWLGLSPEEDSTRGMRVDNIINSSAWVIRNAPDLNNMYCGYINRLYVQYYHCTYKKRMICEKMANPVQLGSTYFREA

Human FcRn = target: T3, Human FcRn (human, UniProt P55899 24-297; P61769 21-119); experiment: SPR 25C, pH 6.0, FcRn on chip, steady state fit
T3 construct: Bought recombinant receptor; also called hFcRn
Protocol: Recombinant human or cynomolgus monkey (cyno) FcRn was captured on a surface of an SA series S chip at a concentration of 0.25 μg/mL for 1 minute. […] Each FcRn binding experiment consisted of multiple cycles utilizing varying concentrations of analytes. […] 0 nM blank cycle placed at the start of each concentration series and a blank amine coupling modified chip surface lacking FcRn were used for referencing. Each experimental cycle included association, dissociation and regeneration steps. The association step consisted of 60 sec analyte injection and was followed by a 60 sec dissociation step. Surface regeneration (60 sec injection of HBS-EP+ buffer, pH 7.4) completed each kinetic cycle. All steps were executed at a flow rate of 30 μL/min and at 25° C. MBS-EP+ buffer, pH 6.0 was used as a running buffer. The data were fitted to a steady state affinity model with Biacore Insight evaluation software. Chi² (calculated by the software) related to the calculated Rₘₐₓ was used to assess goodness of the fit. All reported values were rounded to one decimal place.

[3] = target: T4, Human CD16a V158 (FcγRIIIa V158) (human, UniProt P08637 17-208, biotinylated); experiment: SPR; after pH 8, 40C, 2 wks
T4 construct: Bought recombinant receptor; also called hCD16aV; hFcγRIIIa V158
T4 sequence (P08637 17-208 F176V limits assumed): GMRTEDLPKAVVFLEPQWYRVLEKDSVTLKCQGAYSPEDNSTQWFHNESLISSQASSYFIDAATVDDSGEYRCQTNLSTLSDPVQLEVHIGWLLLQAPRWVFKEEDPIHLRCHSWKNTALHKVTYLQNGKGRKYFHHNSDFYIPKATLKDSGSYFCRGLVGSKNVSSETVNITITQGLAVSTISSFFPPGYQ

[4] = target: T5, Human CLEC12A-His (recombinant, K244 WT) (human, UniProt Q5QGZ9 65-265); experiment: SPR, two-state fit (kd1); control sample
T5 construct: Made in house (Dragonfly Tx); also called hCLEC12A; hCLEC12A-His; not shown: His tag
T5 sequence: T2 sequence

[5] = target: T6, recombinant cynomolgus FcRn (cynomolgus monkey, UniProt Q8SPV9 24-297; Q8SPW0 21-119); experiment: SPR 25C, pH 6.0, steady state, average; pH 6.0; average of four replicates
T6 construct: also called cFcRn; cyno FcRn
T6 sequence (Q8SPV9 24-297 limits assumed, chain 1 of 2): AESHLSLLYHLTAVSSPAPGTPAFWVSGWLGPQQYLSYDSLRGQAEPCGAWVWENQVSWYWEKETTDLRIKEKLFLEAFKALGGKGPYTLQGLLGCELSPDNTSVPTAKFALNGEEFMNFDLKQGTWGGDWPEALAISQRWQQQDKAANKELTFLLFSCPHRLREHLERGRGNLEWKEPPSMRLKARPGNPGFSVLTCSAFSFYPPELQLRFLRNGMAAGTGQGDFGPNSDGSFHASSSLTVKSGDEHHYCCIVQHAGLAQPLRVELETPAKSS
T6 sequence (Q8SPW0 21-119 limits assumed, chain 2 of 2): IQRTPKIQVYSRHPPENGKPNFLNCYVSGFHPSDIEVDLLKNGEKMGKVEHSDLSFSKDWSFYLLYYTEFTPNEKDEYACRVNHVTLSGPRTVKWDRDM
Protocol: Each FcRn binding experiment consisted of multiple cycles utilizing varying concentrations of analytes. […] As no-signal, negative controls, a 0 nM blank cycle was placed at the start of each concentration series, and a blank amine coupling modified chip surface lacking FcRn were used. Each experimental cycle included association, dissociation, and regeneration steps. The association step consisted of 60 sec analyte injection and was followed by a 60 sec dissociation step. Surface regeneration (60 sec injection of HBS-EP+ buffer, pH 7.4) completed each kinetic cycle. All steps were executed at a flow rate of 30 μL/min and at 25° C. MBS-EP+ buffer, pH 6.0 was used as a running buffer. The data were fitted to a steady state affinity model with Biacore Insight evaluation software. Chi² (calculated by the software) related to the calculated Rₘₐₓ was used to assess goodness of the fit.

[6] = target: T7, recombinant human CD16a V158 (human, UniProt P08637 17-208, biotinylated); experiment: SPR, summary table
T7 construct: also called FcγRIIIa V158; hCD16aV
T7 sequence (P08637 17-208 F176V limits assumed): as the sequence (P08637 17-208 F176V limits assumed) above
Description: (§1) Human and cyno CD64, high and low affinity alleles of CD16a (V158 and F158, respectively), two alleles of CD32a (H131 and R131), CD16b, CD32b and cynomolgus CD16 were captured via biotin on a primed Biacore chip, prepared according to the manufacturer's instructions.

recombinant human CD16b = target: T8, recombinant human CD16b (human, UniProt O75015 17-200, limits assumed, biotinylated); experiment: SPR, summary table
T8 construct: also called FcγRIIIb
T8 sequence (O75015 17-200 limits assumed): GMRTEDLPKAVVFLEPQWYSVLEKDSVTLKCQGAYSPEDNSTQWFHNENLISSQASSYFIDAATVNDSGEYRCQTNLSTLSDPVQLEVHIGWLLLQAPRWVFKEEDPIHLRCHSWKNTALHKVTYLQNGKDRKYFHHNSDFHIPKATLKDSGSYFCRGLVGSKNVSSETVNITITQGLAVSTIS
Description: as §1

[7] = target: T9, recombinant cynomolgus CD64 (cynomolgus monkey, UniProt A0A2K5U901 33-309, Biotinylated for capture on the CAP chip; the biotin site is not stated.); experiment: SPR, summary table
T9 construct: also called cFcγRI; cyno CD64; not shown: The vendor's biotinylation and purification tag, used for capture via biotin
T9 sequence (A0A2K5U901 entry or part of it limits assumed): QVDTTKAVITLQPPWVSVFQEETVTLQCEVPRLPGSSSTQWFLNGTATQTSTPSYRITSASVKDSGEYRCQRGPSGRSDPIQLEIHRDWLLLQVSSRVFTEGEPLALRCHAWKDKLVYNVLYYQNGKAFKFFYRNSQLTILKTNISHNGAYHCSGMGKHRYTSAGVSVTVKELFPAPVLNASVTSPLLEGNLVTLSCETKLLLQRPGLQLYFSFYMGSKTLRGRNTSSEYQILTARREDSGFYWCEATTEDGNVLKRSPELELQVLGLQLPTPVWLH

recombinant human CD32b = target: T10, recombinant human CD32b (human, UniProt P31994 46-217, limits assumed, biotinylated); experiment: SPR, summary table
T10 construct: also called FcγRIIb
T10 sequence (looked up): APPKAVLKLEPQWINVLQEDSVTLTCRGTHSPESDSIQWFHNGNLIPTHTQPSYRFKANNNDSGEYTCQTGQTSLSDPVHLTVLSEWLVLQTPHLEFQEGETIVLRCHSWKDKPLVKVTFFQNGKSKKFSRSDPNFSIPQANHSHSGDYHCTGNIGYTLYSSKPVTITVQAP
Description: as §1

[8] = target: T11, recombinant human CD32a H131 (human, UniProt P12318 36-218, limits assumed, biotinylated); experiment: SPR, summary table
T11 construct: also called FcγRIIa H131
T11 sequence (looked up): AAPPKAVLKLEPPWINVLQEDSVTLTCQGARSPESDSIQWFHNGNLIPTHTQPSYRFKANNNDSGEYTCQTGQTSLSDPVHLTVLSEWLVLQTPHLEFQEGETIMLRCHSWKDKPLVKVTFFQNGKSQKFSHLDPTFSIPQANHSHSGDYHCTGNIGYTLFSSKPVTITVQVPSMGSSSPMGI
Description: as §1

[9] = target: T12, recombinant human CD16a F158 (human, UniProt P08637 17-208); experiment: SPR, summary table
T12 construct: also called FcγRIIIa F158
T12 sequence (P08637 17-208 limits assumed): as the sequence (P08637 17-208 F176V limits assumed) above, with V160F counted along it
Description: as §1

recombinant human CD64 = target: T13, recombinant human CD64 (human, UniProt P12314 16-288, biotinylated); experiment: SPR, summary table
T13 construct: also called hFcγRI; hCD64
T13 sequence (P12314 16-288 limits assumed): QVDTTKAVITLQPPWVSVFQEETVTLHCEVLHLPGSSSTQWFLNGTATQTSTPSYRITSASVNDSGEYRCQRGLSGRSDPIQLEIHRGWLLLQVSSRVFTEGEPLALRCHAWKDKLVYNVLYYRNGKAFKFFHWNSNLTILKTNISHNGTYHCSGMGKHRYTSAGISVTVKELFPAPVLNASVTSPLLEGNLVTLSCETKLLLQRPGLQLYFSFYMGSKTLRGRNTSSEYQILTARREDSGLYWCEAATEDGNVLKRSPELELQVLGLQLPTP
Description: as §1

[10] = target: T14, recombinant human CD32a R131 (human, UniProt P12318 36-218, limits assumed, biotinylated); experiment: SPR, summary table
T14 construct: also called FcγRIIa R131
T14 sequence (looked up): T11 sequence (looked up) with H132R
Description: as §1

[11] = target: T15, recombinant cynomolgus CD16 (cynomolgus monkey, UniProt Q8SPW2 17-208, biotinylated); experiment: SPR, summary table
T15 construct: also called cFcγRIII; cyno CD16
T15 sequence (Q8SPW2 17-208 limits assumed): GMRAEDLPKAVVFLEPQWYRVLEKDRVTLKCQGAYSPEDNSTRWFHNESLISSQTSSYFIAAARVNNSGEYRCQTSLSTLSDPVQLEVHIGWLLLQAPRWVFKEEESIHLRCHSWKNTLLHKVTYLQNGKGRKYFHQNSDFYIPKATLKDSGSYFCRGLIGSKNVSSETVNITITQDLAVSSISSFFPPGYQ
Description: as §1

- Kd (mFc-hNKG2D [1]): 708 nM
- koff (mFc-hNKG2D [1]): 0.14 s⁻¹
- kon (mFc-hNKG2D [1]): 198000 M⁻¹ s⁻¹
- Kd (mFc-hNKG2D [2]): 790 nM
- koff (mFc-hNKG2D [2]): 0.153 s⁻¹
- kon (mFc-hNKG2D [2]): 193000 M⁻¹ s⁻¹
- Kd (Human CLEC12A-His): 0.98 nM
- koff (Human CLEC12A-His): 0.000735 s⁻¹
- kon (Human CLEC12A-His): 750000 M⁻¹ s⁻¹
B1: F3'-1602 TriNKET (bispecific antibody, human IgG1, kappa)
chain: QLQLQESGPGLVKPSETLSLTCTVSGFSLTNYGLHWIRQPPGKCLEWIGVIWSGGKTDYNPSLKSRVTISKDTSKNQFSLKLSSVQAADTAVYYCAKYDYDDSLDYWGQGTLVTVSSGGGGSGGGGSGGGGSGGGGSDIQMTQSPSSLSASVGDRVTITCHASQNINFWLSWYQQKPGKAPKLLIYEASNLHTGVPSRFSGSGSGTRFTLTISSLQPEDIATYYCQQSHSYPLTFGCGTKLEIKGSDKTHTCPPCPAPELLGGPSVFLFPPKPKDTLMISRTPEVTCVVVDVSHEDPEVKFNWYVDGVEVHNAKTKPREEQYNSTYRVVSVLTVLHQDWLNGKEYKCKVSNKALPAPIEKTISKAKGQPREPRVYTLPPCRDELTKNQVSLTCLVKGFYPSDIAVEWESNGQPENNYKTTPPVLVSDGSFTLYSKLTVDKSRWQQGNVFSCSVMHEALHNHYTQKSLSLSPG
heavy: EVQLVESGGGLVKPGGSLRLSCAASGFTFSSYSMNWVRQAPGKGLEWVSSISSSSSYIYYADSVKGRFTISRDNAKNSLYLQMNSLRAEDTAVYYCARGAPIGAAAGWFDPWGQGTLVTVSSASTKGPSVFPLAPSSKSTSGGTAALGCLVKDYFPEPVTVSWNSGALTSGVHTFPAVLQSSGLYSLSSVVTVPSSSLGTQTYICNVNHKPSNTKVDKKVEPKSCDKTHTCPPCPAPELLGGPSVFLFPPKPKDTLMISRTPEVTCVVVDVSHEDPEVKFNWYVDGVEVHNAKTKPREEQYNSTYRVVSVLTVLHQDWLNGKEYKCKVSNKALPAPIEKTISKAKGQPREPQVCTLPPSRDELTENQVSLTCLVKGFYPSDIAVEWESNGQPENNYKTTPPVLDSDGSFFLYSWLTVDKSRWQQGNVFSCSVMHEALHNHYTQKSLSLSPG
light: DIQMTQSPSSVSASVGDRVTITCRASQGISSWLAWYQQKPGKAPKLLIYAASSLQSGVPSRFSGSGSGTDFTLTISSLQPEDFATYYCQQGVSFPRTFGGGTKVEIKRTVAAPSVFIFPPSDEQLKSGTASVVCLLNNFYPREAKVQWKVDNALQSGNSQESVTEQDSKDSTYSLSSTLTLSKADYEKHKVYACEVTHQGLSSPVTKSFNRGEC
notes: Trispecific F3' format: CLEC12A scFv-Fc paired with NKG2D Fab-Fc; Stressed and control samples of the stability studies are the same molecule; also called AB0237

- Kd (Human FcRn): 1100 nM
- Kd [3]: 350 nM
- koff [3]: 0.0279 s⁻¹
- kon [3]: 79400 M⁻¹ s⁻¹
- koff [4]: 0.0435 s⁻¹
B2: AB0089 TriNKET (bispecific antibody, human IgG1, kappa)
chain: B1 chain with S53V, K56A, K71V, Y98G, D101G, S103T, R207D, I220F
heavy: B1 heavy
light: B1 light
notes: F3' format heterodimer of three chains; human IgG1 Fc with EW-RVT and Y349C/S354C mutations; also called AB0089 Lot AB0089-002; CLEC12A TriNKET AB0089

- Kd [5]: 1300 nM
- Kd [6]: 238 nM
- Kd (recombinant human CD16b): 7500 nM
- Kd [7]: 2 nM
- Kd (recombinant human CD32b): 6600 nM
- Kd [8]: 900 nM
- Kd [9]: 1110 nM
- Kd (recombinant human CD64): 5.2 nM
- Kd [10]: 1400 nM
- Kd [11]: 306 nM
B3: F3'-1602 TriNKET (other)
chain: B1 chain
heavy: B1 heavy
light: B1 light
notes: CLEC12A scFv-Fc, NKG2D A49MI Fab-Fc, human IgG1 Fc; also called AB0237
